Values of other authors as cited in paper PMC8895726.

Molecular target: LAG-3:Fc (Mus musculus) (UniProt Q61790)
Assay: BLI

Sequence of UniProt Q61790 (Q61790 24-442): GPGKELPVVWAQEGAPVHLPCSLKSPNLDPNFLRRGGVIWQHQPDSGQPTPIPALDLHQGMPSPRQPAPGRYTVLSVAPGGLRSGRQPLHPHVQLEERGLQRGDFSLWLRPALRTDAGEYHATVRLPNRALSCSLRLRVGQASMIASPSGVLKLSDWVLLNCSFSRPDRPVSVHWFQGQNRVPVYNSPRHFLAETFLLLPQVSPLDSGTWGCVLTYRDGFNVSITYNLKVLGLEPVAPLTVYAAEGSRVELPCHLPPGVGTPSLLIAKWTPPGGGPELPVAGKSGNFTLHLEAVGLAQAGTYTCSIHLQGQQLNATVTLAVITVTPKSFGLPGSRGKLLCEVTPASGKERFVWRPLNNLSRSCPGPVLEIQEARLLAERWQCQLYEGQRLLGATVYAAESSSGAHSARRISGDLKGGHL

Kd: 1.5 nM
Substance: FGL1 (from UniProt Q71KU9)
